Results: the supplement of paper PMC12338614
± gives the uncertainty stated by the source.

B1: library; numbered along this chain (parent)
chain: MEVVDPQQLGMFTEGELMSVGMDTFIHRIDSTEVIYQPRRKRAKLIGKYLMGDLLGEGSYGKVKEVLDSETLCRRAVKILKKKKLRRIPNGEANVKKEIQLLRRLRHKNVIQLVDVLYNEEKQKMYMVMEYCVCGMQEMLDSVPEKRFPVCQAHGYFCQLIDGLEYLHSQGIVHKDIKPGNLLLTTGGTLKISDLGVAEALHPFAADDTCRTSQGSPAFQPPEIANGLDTFSGFKVDIWSAGVTLYNITTGLYPFEGDNIYKLFENIGKGSYAIPGDCGPPLSDLLKGMLEYEPAKRFSIRQIRQHSWFRKKHPPAEAPVPIPPSPDTKDRWRSMTVVPYLEDLHGADEDEDLFDIEDDIIYTQDFTVPGQVPEEEASHNGQRRGLPKAVCMNGTEAAQLSTKSRAEGRAPNPARKACSASSKIRRLSACKQQ

Variants of: B1
Test: STK11 functional score (HeLa growth suppression), rescaled enrichment; synonymous median = 1, nonsense median = 0 (normalised score)
Conditions: with HeLa; variant type: missense
In short: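 HeLa cells carrying an AAVS1 landing pad received codon-optimised STK11 libraries made by codon randomisation (POPCode), integrated by Bxb1, with three regions each transfected three times. Integrants that were BFP-negative and mCherry-positive were sorted by FACS 4–5 days after electroporation and then grown for about two weeks. Tiled amplicons from gDNA were sequenced on NextSeq at ~2 million reads per tile. The functional score is a wild-type-corrected log ratio of post- to pre-selection counts, rescaled to the synonymous and nonsense medians, merged across codons and replicate transfections, and given a bootstrapped error.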

In order of rising STK11 functional score:
1. L290E  -0.387 ± 0.062
2. D194E  -0.268 ± 0.36
3. Y118E  -0.175 ± 0.13
4. F148R  -0.0906 ± 0.086
5. Y118N  0.286 ± 0.15
6. S271P  0.317 ± 0.1
7. E130P  0.365 ± 0.27
8. C132G  0.44 ± 0.083
9. V390W  0.447 ± 0.12
10. E65L  0.5 ± 0.28
11. P275E  0.52 ± 0.15
12. F204Y  0.593 ± 0.2
13. S283Y  0.69 ± 0.5
14. N90W  0.707 ± 0.4
15. M129W  0.743 ± 0.079
16. S19R  0.749 ± 0.093
17. E342D  0.774 ± 0.55
18. M125V  0.78 ± 0.12
19. V320C  0.788 ± 0.12
20. A273M  0.796 ± 0.8
21. M127S  0.857 ± 0.15
22. E256V  0.873 ± 0.33
23. A429T  0.896 ± 0.4
24. K122E  0.911 ± 0.6
25. S19F  0.945 ± 0.12
26. S325G  0.96 ± 0.28
27. E199I  0.977 ± 0.097
28. R425W  1.03 ± 0.14
29. Y156I  1.04 ± 0.24
30. S213T  1.05 ± 0.33
31. C132E  1.06 ± 0.36
32. P315A  1.07 ± 0.15
33. K296N  1.12 ± 0.44
34. Y156T  1.13 ± 0.67
35. E2K  1.16 ± 0.78
36. P275I  1.17 ± 0.49
37. T71F  1.17 ± 0.47
38. E256G  1.17 ± 0.28
39. P281L  1.18 ± 0.11
40. A43I  1.18 ± 0.48
41. E65Q  1.18 ± 0.52
42. Q433H  1.2 ± 0.34
43. L55R  1.21 ± 0.11
44. A241C  1.21 ± 0.1
45. F204I  1.23 ± 0.25
46. G408F  1.24 ± 0.52
47. Y261A  1.25 ± 0.43
48. R211C  1.25 ± 0.43
49. K329I  1.25 ± 0.46
50. D162S  1.26 ± 0.13
51. Y118P  1.3 ± 0.14
52. G394A  1.32 ± 0.31
53. C132I  1.32 ± 0.25
54. T402C  1.33 ± 0.4
55. T71C  1.33 ± 0.5
56. D330I  1.33 ± 0.39
57. V133C  1.35 ± 0.33
58. E145P  1.36 ± 0.4
59. T230R  1.39 ± 0.35
60. E342S  1.39 ± 0.25
61. V390Y  1.41 ± 0.3
62. P387S  1.41 ± 0.23
63. P369K  1.42 ± 0.26
64. G346S  1.48 ± 0.22
65. V390S  1.5 ± 0.27
66. V95D  1.5 ± 0.27
67. V390P  1.52 ± 0.27
68. L341N  1.52 ± 0.19
69. S334Q  1.53 ± 0.13
70. P369T  1.53 ± 0.11
71. R426Y  1.54 ± 0.26
72. V320Y  1.55 ± 0.23
73. V320A  1.55 ± 0.2
74. E376Y  1.56 ± 0.19
75. S334N  1.58 ± 0.47
76. E342T  1.58 ± 0.15
77. G394L  1.59 ± 0.25
78. L341Q  1.59 ± 0.17
79. G394K  1.6 ± 0.28
80. R40A  1.6 ± 0.36
81. G346N  1.6 ± 0.19
82. R425D  1.61 ± 0.26
83. R301I  1.65 ± 0.25
